According to US20030149244A1:

What was measured:
[1] = biological target: FcεRI-bound human IgE (IgE loaded on CHO 3D10 cells expressing the FcεRI alpha chain) (human) (UniProt P01854); assay: FACS on IgE-loaded CHO 3D10 cells (FIG. 4), arithmetic/linear scale
[2] = biological target: FcεRI-bound human IgE (IgE loaded on CHO 3D10 cells expressing the FcεRI alpha chain) (human) (UniProt P01854); assay: FACS on IgE-loaded CHO 3D10 cells (FIG. 4); called nonspecific by the filing

Chain of FcεRI-bound human IgE (IgE loaded on CHO 3D10 cells expressing the FcεRI alpha chain) (human) (P01854 whole entry, chain 1 of 2): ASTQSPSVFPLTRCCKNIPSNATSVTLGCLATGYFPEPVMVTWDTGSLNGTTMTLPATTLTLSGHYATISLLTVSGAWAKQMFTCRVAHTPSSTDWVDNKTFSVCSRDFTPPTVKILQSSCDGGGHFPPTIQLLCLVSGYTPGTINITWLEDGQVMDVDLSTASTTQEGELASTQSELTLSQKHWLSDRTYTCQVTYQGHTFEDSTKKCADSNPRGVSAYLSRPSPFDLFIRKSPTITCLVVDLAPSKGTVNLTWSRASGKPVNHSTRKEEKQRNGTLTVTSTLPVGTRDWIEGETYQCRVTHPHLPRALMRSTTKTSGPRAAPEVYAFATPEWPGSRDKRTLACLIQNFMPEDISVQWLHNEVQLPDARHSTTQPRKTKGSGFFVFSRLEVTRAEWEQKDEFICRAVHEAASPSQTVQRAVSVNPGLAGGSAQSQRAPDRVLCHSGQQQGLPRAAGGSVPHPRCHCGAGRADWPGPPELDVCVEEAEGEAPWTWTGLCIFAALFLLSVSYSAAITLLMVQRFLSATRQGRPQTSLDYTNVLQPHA
Chain of FcεRI-bound human IgE (IgE loaded on CHO 3D10 cells expressing the FcεRI alpha chain) (human) (P12319 26-257, chain 2 of 2, further chain): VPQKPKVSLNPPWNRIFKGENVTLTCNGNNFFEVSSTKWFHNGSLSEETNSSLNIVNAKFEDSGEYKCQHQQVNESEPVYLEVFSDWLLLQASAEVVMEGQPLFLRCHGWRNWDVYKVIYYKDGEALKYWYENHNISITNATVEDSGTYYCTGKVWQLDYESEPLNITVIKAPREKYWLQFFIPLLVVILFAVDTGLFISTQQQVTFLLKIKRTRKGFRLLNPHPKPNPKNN

mean channel fluorescence at 0.1 µg/ml [1]: 7.3
nonspecific background binding (percent) [2]: 10%
Substance: MOPC21 (antibody)
